This series addresses GST-PBIPtide-A6 [GST: P08515].

B1: Flag-Plk3 (protein)
chain: MEPAAGFLSPRPFQRAAAAPAPPAGPGPPPSALRGPELEMLAGLPTSDPGRLITDPRSGRTYLKGRLLGKGGFARCYEATDTETGSAYAVKVIPQSRVAKPHQREKILNEIELHRDLQHRHIVRFSHHFEDADNIYIFLELCSRKSLAHIWKARHTLLEPEVRYYLRQILSGLKYLHQRGILHRDLKLGNFFITENMELKVGDFGLAARLEPPEQRKKTICGTPNYVAPEVLLRQGHGPEADVWSLGCVMYTLLCGSPPFETADLKETYRCIKQVHYTLPASLSLPARQLLAAILRASPRDRPSIDQILRHDFFTKGYTPDRLPISSCVTVPDLTPPNPARSLFAKVTKSLFGRKKKSKNHAQERDEVSGLVSGLMRTSVGHQDARPEAPAASGPAPVSLVETAPEDSSPRGTLASSGDGFEEGLTVATVVESALCALRNCIAFMPPAEQNPAPLAQPEPLVWVSKWVDYSNKFGFGYQLSSRRVAVLFNDGTHMALSANRKTVHYNPTSTKHFSFSVGAVPRALQPQLGILRYFASYMEQHLMKGGDLPSVEEVEVPAPPLLLQWVKTDQALLMLFSDGTVQVNFYGDHTKLILSGWEPLLVTFVARNRSACTYLASHLRQLGCSPDLRQRLRYALRLLRDRSPA
In the case of B1, the “in vitro kinase assay of Flag immunoprecipitates, 32P incorporated into GST-PBIPtide-A6” value is “Plk1, but not Plk2 or Plk3, phosphorylates and binds to the T78 motif of PBIPtides”.

B2: Flag-Plk2 (protein)
chain: MELLRTITYQPAASTKMCEQALGKGCGADSKKKRPPQPPEESQPPQSQAQVPPAAPHHHHHHSHSGPEISRIIVDPTTGKRYCRGKVLGKGGFAKCYEMTDLTNNKVYAAKIIPHSRVAKPHQREKIDKEIELHRILHHKHVVQFYHYFEDKENIYILLEYCSRRSMAHILKARKVLTEPEVRYYLRQIVSGLKYLHEQEILHRDLKLGNFFINEAMELKVGDFGLAARLEPLEHRRRTICGTPNYLSPEVLNKQGHGCESDIWALGCVMYTMLLGRPPFETTNLKETYRCIREARYTMPSSLLAPAKHLIASMLSKNPEDRPSLDDIIRHDFFLQGFTPDRLSSSCCHTVPDFHLSSPAKNFFKKAAAALFGGKKDKARYIDTHNRVSKEDEDIYKLRHDLKKTSITQQPSKHRTDEELQPPTTTVARSGTPAVENKQQIGDAIRMIVRGTLGSCSSSSECLEDSTMGSVADTVARVLRGCLENMPEADCIPKEQLSTSFQWVTKWVDYSNKYGFGYQLSDHTVGVLFNNGAHMSLLPDKKTVHYYAELGQCSVFPATDAPEQFISQVTVLKYFSHYMEENLMDGGDLPSVTDIRRPRLYLLQWLKSDKALMMLFNDGTFQVNFYHDHTKIIICSQNEEYLLTYINEDRISTTFRLTTLLMSGCSSELKNRMEYALNMLLQRCN
Regarding B2, the “in vitro kinase assay of Flag immunoprecipitates, 32P incorporated into GST-PBIPtide-A6” value was “Plk1, but not Plk2 or Plk3, phosphorylates and binds to the T78 motif of PBIPtides”.

Values taken from US20110076693.
